Measurements as given in the supplement of paper PMC10065799, “High-throughput profiling of sequence recognition by tyrosine kinases and SH2 domains using bacterial peptide display” (eLife, 2023).

Experiments:
[1] = target: SHP2-C SH2; test: SH2 binding enrichment of the phosphorylated peptide, bacterial display (enrichment ratio); higher = better substrate or ligand; peptides without Tyr show the background
[2] = target: Grb2 SH2 (UniProt P62993); test: as above
[3] = target: c-Src SH2; test: as above
[4] = tested on: c-Src; test: phosphorylation enrichment, bacterial display (enrichment ratio); higher = better substrate or ligand; peptides without Tyr show the background
[5] = target: FGFR3 (UniProt P22607); test: as above
[6] = tested on: Fer (mouse); test: as above
[7] = tested on: c-Abl (mouse); test: as above
[8] = target: EPHB2 (UniProt P29323); test: as above
EPHB2, sequence (P29323 whole entry, looked up): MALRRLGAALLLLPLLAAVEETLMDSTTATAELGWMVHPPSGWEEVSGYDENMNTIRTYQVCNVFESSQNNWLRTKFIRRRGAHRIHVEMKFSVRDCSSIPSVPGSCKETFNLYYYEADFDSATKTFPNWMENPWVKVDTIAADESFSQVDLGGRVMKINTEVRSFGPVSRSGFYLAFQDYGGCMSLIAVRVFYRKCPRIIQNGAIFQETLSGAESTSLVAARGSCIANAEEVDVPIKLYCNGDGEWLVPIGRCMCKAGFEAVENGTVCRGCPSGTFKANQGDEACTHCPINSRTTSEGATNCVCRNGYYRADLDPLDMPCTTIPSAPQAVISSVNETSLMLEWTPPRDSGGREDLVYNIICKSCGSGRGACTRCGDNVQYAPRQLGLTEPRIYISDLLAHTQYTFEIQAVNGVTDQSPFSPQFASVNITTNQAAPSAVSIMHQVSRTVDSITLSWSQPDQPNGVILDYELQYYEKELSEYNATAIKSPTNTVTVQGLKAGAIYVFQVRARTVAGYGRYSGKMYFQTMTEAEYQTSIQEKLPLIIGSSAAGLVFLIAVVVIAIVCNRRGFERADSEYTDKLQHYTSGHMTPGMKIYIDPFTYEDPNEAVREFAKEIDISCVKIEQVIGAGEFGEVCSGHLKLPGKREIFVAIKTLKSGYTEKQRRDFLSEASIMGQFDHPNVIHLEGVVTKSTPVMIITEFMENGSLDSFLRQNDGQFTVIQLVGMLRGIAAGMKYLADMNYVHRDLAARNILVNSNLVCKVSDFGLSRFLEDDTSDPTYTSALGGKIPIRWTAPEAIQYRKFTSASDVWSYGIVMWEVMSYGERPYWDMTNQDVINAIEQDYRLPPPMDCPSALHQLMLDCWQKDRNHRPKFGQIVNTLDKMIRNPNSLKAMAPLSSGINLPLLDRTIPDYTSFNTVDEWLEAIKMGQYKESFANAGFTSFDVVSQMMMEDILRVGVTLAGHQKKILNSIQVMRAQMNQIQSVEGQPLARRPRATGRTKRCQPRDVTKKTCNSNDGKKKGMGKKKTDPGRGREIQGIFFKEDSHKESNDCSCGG

[9] = target: Fes (UniProt P07332); test: as above
[10] = target: MERTK (UniProt Q12866); test: as above
MERTK, sequence (Q12866 whole entry, looked up): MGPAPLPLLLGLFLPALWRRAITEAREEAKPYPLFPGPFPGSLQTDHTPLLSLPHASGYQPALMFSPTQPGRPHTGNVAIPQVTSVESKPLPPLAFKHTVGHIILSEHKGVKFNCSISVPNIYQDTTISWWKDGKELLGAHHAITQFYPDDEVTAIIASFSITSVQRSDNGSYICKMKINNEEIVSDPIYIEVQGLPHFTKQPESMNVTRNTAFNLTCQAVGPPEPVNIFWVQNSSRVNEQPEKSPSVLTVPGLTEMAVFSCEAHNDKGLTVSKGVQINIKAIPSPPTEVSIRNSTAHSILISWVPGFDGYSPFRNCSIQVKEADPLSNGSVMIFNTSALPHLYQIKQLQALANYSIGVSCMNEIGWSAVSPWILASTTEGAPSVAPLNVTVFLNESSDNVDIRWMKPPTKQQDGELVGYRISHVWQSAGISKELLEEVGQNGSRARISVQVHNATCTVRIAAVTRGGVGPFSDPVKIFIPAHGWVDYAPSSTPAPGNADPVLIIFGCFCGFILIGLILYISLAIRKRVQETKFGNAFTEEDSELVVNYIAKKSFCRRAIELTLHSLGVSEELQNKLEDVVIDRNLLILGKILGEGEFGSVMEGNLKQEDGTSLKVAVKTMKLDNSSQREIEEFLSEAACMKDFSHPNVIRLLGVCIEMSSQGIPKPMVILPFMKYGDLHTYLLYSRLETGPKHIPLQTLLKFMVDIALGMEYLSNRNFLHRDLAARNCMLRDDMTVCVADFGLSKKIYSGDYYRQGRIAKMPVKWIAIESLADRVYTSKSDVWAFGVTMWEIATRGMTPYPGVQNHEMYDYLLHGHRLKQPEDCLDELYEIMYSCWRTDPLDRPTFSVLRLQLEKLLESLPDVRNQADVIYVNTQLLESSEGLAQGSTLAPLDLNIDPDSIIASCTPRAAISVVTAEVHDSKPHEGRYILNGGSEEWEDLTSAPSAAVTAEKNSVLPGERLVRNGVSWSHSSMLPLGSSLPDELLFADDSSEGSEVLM

[11] = tested on: AncSZ; test: as above
[12] = target: EPHB1 (UniProt P54762); test: as above
EPHB1, sequence (P54762 whole entry, looked up): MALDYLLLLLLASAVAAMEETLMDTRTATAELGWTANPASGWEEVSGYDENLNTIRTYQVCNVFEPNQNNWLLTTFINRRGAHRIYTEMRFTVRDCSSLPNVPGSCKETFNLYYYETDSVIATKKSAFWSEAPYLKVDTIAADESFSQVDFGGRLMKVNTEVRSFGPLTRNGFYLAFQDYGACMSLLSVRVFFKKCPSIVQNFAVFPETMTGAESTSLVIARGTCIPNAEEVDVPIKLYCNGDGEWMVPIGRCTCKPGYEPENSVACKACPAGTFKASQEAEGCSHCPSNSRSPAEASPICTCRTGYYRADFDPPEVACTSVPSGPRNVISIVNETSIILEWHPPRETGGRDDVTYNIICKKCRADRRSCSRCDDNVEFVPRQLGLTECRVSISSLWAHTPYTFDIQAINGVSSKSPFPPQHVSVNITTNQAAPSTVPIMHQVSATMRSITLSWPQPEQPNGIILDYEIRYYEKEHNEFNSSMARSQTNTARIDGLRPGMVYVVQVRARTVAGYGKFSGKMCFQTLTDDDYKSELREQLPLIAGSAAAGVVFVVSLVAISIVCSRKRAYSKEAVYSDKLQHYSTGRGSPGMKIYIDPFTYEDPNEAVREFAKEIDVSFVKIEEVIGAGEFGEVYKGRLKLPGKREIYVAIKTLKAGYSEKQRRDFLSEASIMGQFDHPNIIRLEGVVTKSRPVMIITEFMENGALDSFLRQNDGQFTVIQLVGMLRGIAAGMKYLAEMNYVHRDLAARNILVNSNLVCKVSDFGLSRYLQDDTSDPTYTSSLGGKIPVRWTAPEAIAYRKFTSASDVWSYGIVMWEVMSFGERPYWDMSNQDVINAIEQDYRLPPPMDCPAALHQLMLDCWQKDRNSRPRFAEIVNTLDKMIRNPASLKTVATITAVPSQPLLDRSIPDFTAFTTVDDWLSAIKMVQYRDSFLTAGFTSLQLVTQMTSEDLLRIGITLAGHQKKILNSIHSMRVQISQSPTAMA

[13] = target: Jak2 (UniProt O60674); test: as above
[14] = target: Hck (UniProt P08631); test: as above
Hck, sequence (P08631 whole entry, looked up): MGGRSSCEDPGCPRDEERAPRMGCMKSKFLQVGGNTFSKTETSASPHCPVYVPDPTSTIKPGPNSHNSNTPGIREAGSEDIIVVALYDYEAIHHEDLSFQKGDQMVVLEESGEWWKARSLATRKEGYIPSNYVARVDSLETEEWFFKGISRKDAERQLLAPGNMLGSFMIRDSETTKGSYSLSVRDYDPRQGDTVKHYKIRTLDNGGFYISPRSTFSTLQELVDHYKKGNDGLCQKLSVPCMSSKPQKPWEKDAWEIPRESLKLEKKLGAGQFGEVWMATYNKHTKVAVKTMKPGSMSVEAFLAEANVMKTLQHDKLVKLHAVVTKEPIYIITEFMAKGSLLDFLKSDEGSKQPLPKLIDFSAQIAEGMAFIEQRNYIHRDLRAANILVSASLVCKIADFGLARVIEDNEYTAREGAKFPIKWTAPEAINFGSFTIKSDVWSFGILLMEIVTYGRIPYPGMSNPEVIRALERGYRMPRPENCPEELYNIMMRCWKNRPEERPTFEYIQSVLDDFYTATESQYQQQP

[15] = target: Fyn (UniProt P06241); test: as above
Fyn, sequence (P06241 whole entry, looked up): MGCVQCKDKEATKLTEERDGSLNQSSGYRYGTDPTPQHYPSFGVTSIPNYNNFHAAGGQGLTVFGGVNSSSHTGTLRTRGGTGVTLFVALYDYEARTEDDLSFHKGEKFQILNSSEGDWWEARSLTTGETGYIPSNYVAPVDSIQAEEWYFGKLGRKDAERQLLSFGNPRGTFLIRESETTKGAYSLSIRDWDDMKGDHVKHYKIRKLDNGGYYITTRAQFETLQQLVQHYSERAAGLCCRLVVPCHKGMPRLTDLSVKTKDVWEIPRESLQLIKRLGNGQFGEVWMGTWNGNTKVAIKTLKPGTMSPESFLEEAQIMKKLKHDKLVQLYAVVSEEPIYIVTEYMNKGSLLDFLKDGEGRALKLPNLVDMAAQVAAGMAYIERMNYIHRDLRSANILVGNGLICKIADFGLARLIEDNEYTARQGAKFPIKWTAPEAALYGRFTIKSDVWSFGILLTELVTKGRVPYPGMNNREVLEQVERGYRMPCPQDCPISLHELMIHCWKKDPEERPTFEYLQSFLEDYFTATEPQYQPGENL

[16] = target: FGFR1 (UniProt P11362); test: as above
FGFR1, sequence (P11362 whole entry, looked up, the tested form may be a part): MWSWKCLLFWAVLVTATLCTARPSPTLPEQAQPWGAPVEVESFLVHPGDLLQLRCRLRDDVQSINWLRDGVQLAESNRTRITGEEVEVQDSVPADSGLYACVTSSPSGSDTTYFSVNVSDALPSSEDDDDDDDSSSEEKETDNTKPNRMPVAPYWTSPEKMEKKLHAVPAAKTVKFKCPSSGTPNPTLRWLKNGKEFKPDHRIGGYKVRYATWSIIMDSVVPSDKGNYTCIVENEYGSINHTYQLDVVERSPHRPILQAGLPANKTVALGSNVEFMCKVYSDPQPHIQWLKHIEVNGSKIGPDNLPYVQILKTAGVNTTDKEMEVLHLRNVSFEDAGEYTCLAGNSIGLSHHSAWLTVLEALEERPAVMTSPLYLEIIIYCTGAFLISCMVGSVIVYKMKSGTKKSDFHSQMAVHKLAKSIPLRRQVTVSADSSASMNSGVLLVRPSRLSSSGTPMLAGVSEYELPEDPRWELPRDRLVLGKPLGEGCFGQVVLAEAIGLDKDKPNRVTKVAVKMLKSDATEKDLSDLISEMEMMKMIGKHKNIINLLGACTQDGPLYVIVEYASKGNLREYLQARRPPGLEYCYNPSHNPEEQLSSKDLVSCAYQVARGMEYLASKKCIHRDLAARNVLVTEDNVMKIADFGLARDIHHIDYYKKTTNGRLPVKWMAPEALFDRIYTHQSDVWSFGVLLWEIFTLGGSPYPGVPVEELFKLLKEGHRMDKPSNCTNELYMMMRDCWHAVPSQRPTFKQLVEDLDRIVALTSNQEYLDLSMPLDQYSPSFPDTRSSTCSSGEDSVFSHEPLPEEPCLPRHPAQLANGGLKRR
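For SH2 binding enrichment of the phosphorylated peptide, bacterial display in this document: peptide library displayed on the E. coli surface as eCPX fusions, selected cells deep-sequenced, score is each peptide's frequency after selection divided by its frequency in the input.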
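For phosphorylation enrichment, bacterial display in this document: 11-residue human phosphosite peptides and single-mutation variants displayed on the E. coli surface, counted by deep sequencing, each peptide's frequency after selection divided by its frequency in the unselected input library; frequency after pTyr selection over input frequency; kinase dosed for 20-30% of maximal phosphorylation in three min.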

Row | Sequence | SH2 binding enrichment [1] | SH2 binding enrichment [2] | SH2 binding enrichment [3] | phosphorylation enrichment [4] | phosphorylation enrichment [5] | phosphorylation enrichment [6] | phosphorylation enrichment [7] | phosphorylation enrichment [8] | phosphorylation enrichment [9] | phosphorylation enrichment [10] | phosphorylation enrichment [11] | phosphorylation enrichment [12] | phosphorylation enrichment [13] | phosphorylation enrichment [14] | phosphorylation enrichment [15] | phosphorylation enrichment [16]
1 | TEQDPYNNIDR [MMUT_Y364_V368D] | 0.731 | 0.798 | 2.23 | 0.486 | 0.641 | 0.486 | 0.658 | 0.565 | 1.06 | 0.475 | 1.08 | 0.638 | 0.791 | 0.501 | 0.505 | 0.728
2 | TFEPNYGTVKQ [RAPGEF6_Y1447_YF] | 0.794 | 0.826 | 0.523 | 1.22 | 0.63 | 0.881 | 0.522 | 1.53 | 0.607 | 0.442 | 1.01 | 0.582 | 0.488 | 0.822 | 1.36 | 0.471
3 | TFQFKYPEGSS [TGM4_Y440_E437Q_YF] | 0.896 | 0.955 | 0.568 | 0.427 | 0.722 | 0.363 | 0.564 | 0.478 | 0.943 | 0.44 | 0.841 | 0.496 | 0.69 | 0.491 | 0.529 | 0.521
4 | TGHKGYVAFLE [CARD9_Y76] | 0.81 | 0.739 | 1.93 | 0.394 | 0.507 | 0.403 | 0.617 | 0.466 | 0.666 | 0.396 | 0.674 | 0.392 | 0.635 | 0.494 | 0.358 | 0.414
5 | TIEDSYRKQVV [KRAS_Y40] | 0.6 | 0.818 | 0.428 | 0.426 | 0.561 | 0.348 | 0.599 | 0.371 | 0.79 | 0.369 | 0.62 | 0.383 | 0.703 | 0.358 | 0.388 | 0.398
6 | TIMTDYNPNFC [ALK_Y1092_YF] | 0.674 | 0.999 | 0.633 | 0.545 | 0.549 | 0.373 | 0.783 | 0.491 | 0.917 | 0.395 | 0.858 | 0.498 | 0.795 | 0.47 | 0.499 | 0.533
7 | TINPIHEHVGY [CHN1_Y143_Y143H] | 0.87 | 0.823 | 0.58 | 0.423 | 0.414 | 0.757 | 0.57 | 0.433 | 0.727 | 0.446 | 0.679 | 0.674 | 0.864 | 0.474 | 0.377 | 0.426
8 | TISPFYCQSLF [CRYAA_Y48_R49C_YF] | 0.707 | 0.912 | 0.632 | 0.516 | 0.723 | 0.837 | 0.768 | 0.579 | 1.2 | 1.8 | 1.05 | 0.682 | 0.992 | 0.643 | 0.571 | 0.535
9 | TISPYYRQSLF [CRYAA_Y48] | 0.767 | 0.783 | 0.678 | 0.492 | 0.653 | 0.479 | 0.617 | 0.474 | 0.787 | 0.468 | 0.859 | 0.526 | 0.745 | 0.433 | 0.414 | 0.613
10 | TKQLTYEEQDL [PIK3C3_Y310] | 0.686 | 0.786 | 0.541 | 0.539 | 0.791 | 0.649 | 1.01 | 0.653 | 1.38 | 0.483 | 1.27 | 0.655 | 1.19 | 0.552 | 0.529 | 0.576
11 | TKVTFYKQPMF [GBA_Y451_D448V] | 0.737 | 0.777 | 0.453 | 0.337 | 0.631 | 0.42 | 0.588 | 0.526 | 0.936 | 0.419 | 0.981 | 0.439 | 0.853 | 0.458 | 0.506 | 0.461
12 | TKVVHYWKWIK [KLK2_Y249_R250W] | 1.45 | 1.41 | 1.12 | 0.474 | 0.58 | 0.378 | 0.714 | 0.364 | 0.975 | 0.51 | 0.812 | 0.494 | 0.802 | 0.501 | 0.346 | 0.489
13 | TLARLYHRDST [LRIG1_Y1029_P1031R] | 0.608 | 0.963 | 0.552 | 0.449 | 0.729 | 0.71 | 0.761 | 0.539 | 0.844 | 0.522 | 0.761 | 0.501 | 0.61 | 0.409 | 0.565 | 0.563
14 | TLEKFYFAFPG [SLC1A1_Y51] | 0.92 | 1 | 0.589 | 3.75 | 6.62 | 0.496 | 7.49 | 2.85 | 1.18 | 7.49 | 1.53 | 1.98 | 3.54 | 1.62 | 1.9 | 8.55
15 | TLLERYGMTKI [ACSF3_Y355_E359K] | 0.636 | 0.884 | 0.433 | 0.43 | 0.667 | 0.374 | 0.728 | 0.594 | 0.734 | 0.407 | 0.751 | 0.531 | 0.625 | 0.478 | 0.484 | 0.513
16 | TLMNAYSSCSH [KIF11_Y231_R234C] | 0.658 | 0.808 | 1.24 | 0.45 | 0.566 | 0.599 | 0.597 | 0.566 | 0.803 | 0.496 | 0.702 | 0.465 | 0.642 | 0.557 | 0.462 | 0.436
17 | TLPAFYMENFS [GLB1_Y552_G554E] | 0.638 | 0.853 | 0.484 | 0.735 | 0.855 | 0.64 | 1.2 | 0.789 | 1.62 | 0.947 | 1.19 | 1.25 | 1.37 | 0.523 | 0.484 | 0.439
